Assay [1] deals with T1, human Sirpα-V1-hFc (human, UniProt P78324 31-373).
T1 construct: range 31-373; also called hSirpα (dimer); hSirpα-V1-hFc (dimer); not shown: human IgG1 Fc region at the C-terminus
The assay is described as follows: blocking ELISA, competitor CD47-his. As for the experimental part: (§1) The recombinant proteins such as human Sirpα-V1-hFc/Sirpα-V1-his were diluted to concentrations of 5 μg/mL or 2 μg/mL respectively with a PBS buffer at pH 7.4, and then added into a 96-well ELISA plate (Corning, CLS3590-100EA) at a volume of 50 μL/well, and placed in an incubator at 37° C. for 2 hours. After the liquid was discarded, the wells were added with a blocking solution of 5% skimmed milk (skimmed milk powder available from Bright Dairy) diluted with PBS at 230 μL/well, and incubated in an incubator at 37° C. for 3 hours, or placed overnight at 4° C. (for 16-18 hours) for blocking. […] The plate was washed for 5 times, added with 50 μL/well of streptavidin-HRP (GenScript, M00091) or anti-his-HRP secondary antibody (GenScript, A00612) diluted at 1:1000, incubated at 37° C. for 1 hour, and then washed with PBST for 5 times. Each well was added with 50 μL of TMB (Surmodic, Cat #: TTMB-1000-01) for color development, and added with 50 μL/well of 1 M H₂SO₄ to stop the reaction. The readings on a microplate reader (MultiskanGO Thermo, Model 51119200) were subjected to data analysis by GraphPad prism 5.

Assay [2] concerns the target T2, human T cells (expressing Sirpγ) (human, UniProt Q9P1W8 29-387).
T2 construct: whole, on cells; The target as printed is the cell; also called human PBMCs (T cells)
Nature of the assay: flow cytometry on PBMC.
Protocol: The cryopreserved PBMC cells were taken, thawed at 37° C., then added into 3 mL of a FACS buffer (1×PBS+2% FBS), and centrifuged at 1,000 rpm for 5 min, the supernatant was discarded, the cells were resuspended in the FACS buffer for counting, and the density was adjusted to 1×10⁶ cells/mL. PBMCs were added into a U-shaped 96-well plate at 100 μL cells/well, and added with the antibody to be detected so that the final concentrations thereof are 10 μg/mL, 1 μg/mL and 0 μg/mL respectively. They were mixed uniformly, then incubated at room temperature for 20 min, and centrifuged at 2,000 rpm for 5 min. The supernatant was discarded, and the cell pellet was resuspended by adding 100 μL of the FACS buffer, and centrifuged at 2,000 rpm for 5 min. […] The mixture was centrifuged at 2,000 rpm for 5 min. The supernatant was discarded, and the cell pellet was washed once with 100 μL of the FACS buffer, resuspended with 100 μL of the FACS buffer, and read by a flow cytometer (Novosampler™ pro, model: NS200). The assay data was processed with NovoExpress. Taking the sample well with the antibody concentration of 0 μg/mL as the negative control, based on this, the proportion of T cells specifically bound with the antibody to be tested was calculated.

Assay [3] has as its target T3, human Sirpα-V1-his (human, UniProt P78324 31-373).
T3 construct: range 31-373; Bought (Sino Biological 11612-H08H) or expressed in-house; also called hSirpα-V1; hSirpα-V1-his
The assay is described as follows: blocking ELISA, competitor CD47-hFc. As for the experimental part: as §1
For orientation: An ELISA detects its analyte on a solid surface through an enzyme-linked reagent.

For assay [4], the target named is T3, human Sirpα-V1-his. The assay is described as follows: ELISA.
Assay [5] concerns the target human Sirpα-V2-his (human). Nature of the assay: blocking ELISA, competitor CD47-hFc. The procedure:
Specifically, the recombinant protein of human Sirpα-V2-his was diluted to a concentration of 2 μg/mL with a PBS buffer at pH7.4, then added into a 96-well ELISA plate (Corning, CLS3590-100EA) at a volume of 50 μL/well, and placed in an incubator at 37° C. for 2 hours. After the liquid was discarded, the wells were added with a blocking solution of 5% skimmed milk (skimmed milk powder available from Bright Dairy) diluted with PBS at 230 μL/well, and incubated in an incubator at 37° C. for 3 hours, or placed overnight at 4° C. (for 16-18 hours) for blocking. […] The plate was washed for 5 times, added with 50 μL/well of a streptavidin-HRP secondary antibody (GenScript, M00091) diluted at 1:1000, incubated at 37° C. for 1 hour, and then washed with PBST for 5 times. Each well was added with 50 μL TMB (Surmodic, Cat #TTMB-1000-01) for color development, and added with 50 μL/well of 1 M H₂SO₄ to stop the reaction. The readings on a microplate reader (MultiskanGO Thermo, Model: 51119200) were subjected to data analysis by GraphPad prism 5.

Assay [6] has as its target T3, human Sirpα-V1-his. The assay is described as follows: blocking ELISA, competitor CD47-hFc. The procedure: (§2) The antigens PD-1 and Sirpα expressed according to the method of Example 1 were diluted with a PBS buffer at pH7.4 to a concentration of 2 μg/mL, added into a 96-well ELISA plate (Corning, CLS3590-100EA) at a volume of 50 μL/well, and incubated at 37° C. for 2 hours. After the liquid was discarded, the wells were added with a blocking solution of 5% skimmed milk (Sangon Biotech (Shanghai) Co., Ltd., A600669-0250) formulated with PBS at 200 μL/well, and incubated at 37° C. for 3 hours for blocking. […] The plate was washed with PBST for 5 times, added with 50 μL/well of HRP-labeled secondary antibody (GenScript Biotechnology Co., Ltd., M00091) diluted at 1:1000, and incubated at 37° C. for 1 hour. The plated was washed with PBST for 5 times, then added with 50 μl/well of TMB chromogenic substrate (KPL, 52-00-03), incubated at room temperature for 5-10 min, added with 50 μl/well of 1 M H₂SO₄ to stop the reaction, and read by a […] Go microplate reader (ThermoFisher, 51119200) for the absorbance value at 450 nm, and then IC₅₀ was calculated according to the OD value.
The source holds these as a separate data set.

Assay [7] has as its target T1, human Sirpα-V1-hFc. Nature of the assay: blocking ELISA, competitor CD47-his. As for the experimental part: as §2
This is another data set of the same source.

The target in assay [8] is T3, human Sirpα-V1-his. The assay is described as follows: ELISA EC50 against Ref2. As for the experimental part: (§3) Different antigens (recombinant proteins) such as the human Sirpα-V1-hFc, Sirpα-V1-his, Sirpα-V2-his, Sirpβ-his, Sirpγ-his, monkey Sirpα-his (cynoSirpα-his) or NOD-mSirpα-his described in Example 1 were diluted with a PBS buffer at pH7.4 to concentrations of 1 μg/mL, 2 μg/mL or 5 μg/mL, added into a 96-well ELISA plate (Corning, CLS3590-100EA) at a volume of 50 μL/well, and placed in an incubator at 37° C. for 2 hours. After the liquid was discarded, the wells were added with a blocking solution of 5% skimmed milk (skimmed milk powder available from Bright Dairy) diluted with PBS at 230 μL/well, and incubated in an incubator at 37° C. for 3 hours, or placed overnight at 4° C. (for 16-18 hours) for blocking. […] The plated was washed with PBST for 5 times, then added with 50 μL/well of TMB chromogenic substrate (KPL, Cat #: 52-00-03), incubated at room temperature for 10-15 min, added with 50 μL/well of 1 M H₂SO₄ to stop the reaction, and read by a […] Go microplate reader (ThermoFisher, Cat #: 51119200) for the absorbance value at 450 nm, and then a clone with high binding activity was selected or a EC₅₀ value was calculated according to the OD value.

Assay [9] concerns the target human Sirpα-V2-his (human). Nature of the assay: ELISA EC50 against Ref2. As for the experimental part:
as §3

Where two headings read alike, the source gives them in different places.

Sequence of human Sirpα-V2-his (human) (chain, as listed by the source): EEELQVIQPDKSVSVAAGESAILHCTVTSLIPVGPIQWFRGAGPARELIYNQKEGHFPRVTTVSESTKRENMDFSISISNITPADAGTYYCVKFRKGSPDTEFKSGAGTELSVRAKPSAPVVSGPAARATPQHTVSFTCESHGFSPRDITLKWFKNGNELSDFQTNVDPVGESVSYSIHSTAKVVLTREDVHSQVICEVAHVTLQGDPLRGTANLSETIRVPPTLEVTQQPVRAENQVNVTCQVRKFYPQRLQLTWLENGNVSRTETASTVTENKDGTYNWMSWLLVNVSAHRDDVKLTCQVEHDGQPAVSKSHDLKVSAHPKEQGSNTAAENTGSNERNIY
T2 sequence (Q9P1W8 29-387): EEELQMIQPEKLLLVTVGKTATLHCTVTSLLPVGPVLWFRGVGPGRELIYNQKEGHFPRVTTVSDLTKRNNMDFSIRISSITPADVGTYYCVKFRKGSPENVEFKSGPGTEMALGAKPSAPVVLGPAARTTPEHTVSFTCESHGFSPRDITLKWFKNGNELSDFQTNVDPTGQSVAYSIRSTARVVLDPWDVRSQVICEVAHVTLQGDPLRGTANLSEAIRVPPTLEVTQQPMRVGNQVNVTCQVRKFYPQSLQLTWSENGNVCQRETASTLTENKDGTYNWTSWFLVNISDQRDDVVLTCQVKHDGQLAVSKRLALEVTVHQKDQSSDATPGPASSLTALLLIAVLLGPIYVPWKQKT

B1: humanized antibody mab14-h16 (antibody, human IgG4 S228P, kappa, V domains shown)
VH: QVQLVQSGAEVKKPGASVKVSCKASGYNFNIYWINWVRQAPGQGLEWIGNIYPSSISTNYNEKFKTRATLTVDKSTSTVYMELSSLRSEDTAVYYCARSEGTYYGGRYEGDWFGYWGQGTLVTVSS
VL: DIQMTQSPSSLSASVGDRVTITCRASQDIRNYLNWYQQKPGKAPKLLIYFTSTLHSGVPSRFSGSGSGTDFTLTISSLQPEDFATYYCQQGNTLPWTFGGGTKVEIKR
notes: hIgG4, κ
As to B1, the 50% inhibitory concentration (IC50) with human Sirpα-V1-hFc [1] amounted to 4.81 nM; in the assay with human Sirpα-V1-his [3], 5.28 nM; with human Sirpα-V2-his [5] it was 6.29 nM; with human Sirpα-V1-his [6] it was 6.14 nM; with human Sirpα-V1-hFc [7], 3.88 nM. The binding result in assay [2] is “no binding (tested: negative control 1.67%)”. In addition, in the assay with human Sirpα-V1-his [4], the EC50 was 0.087 nM. For the same molecule, the entries for the “fold stronger binding than Ref2” value with human Sirpα-V1-his [8] and with human Sirpα-V2-his [9] were 1.4 fold and 2.9 fold, respectively.

As a reminder, the IC50 is the concentration that inhibits the measured activity by half. A higher IC50 goes with a need for much substance. In general, EC50 refers to the concentration needed to bring the measured effect to its halfway point. A lower EC50 goes with greater potency.
